{"source": "the nanobody polyreactivity screen of Harvey et al. (2022)", "data": [{"test": "yeast display, Sf9 membrane polyspecificity reagent, FACS + sequencing; frameworks hold sequencing errors", "outline": "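In a synthetic yeast display library (Saccharomyces cerevisiae BJ5465), nanobody expression was induced with galactose for 36–48 hours. FACS gates were set low and high (top ~1%) using anti-HA fluorescence for expression and streptavidin fluorescence for binding of the Sf9 membrane reagent. Each polyreactivity label is drawn from the gate of origin.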", "values": [{"sequence": "QVQLVESGGGLVQAGGSLRLSCAASGITFWRNAMGWYRQAPGKESELVAAISWSVGRTYYADSVKGRFTISRDNAKNTVYLQMNSLKPEDTAFYYCIARWRSGPRAYDYWGQGTQVSVSS", "polyreactivity (PSR sort gate)": "high polyreactivity"}, {"sequence": "QVQLVESGGGLVQAGGSLRLSCAASGITFWRTAMGWYRQAPGKEREFVAAITWTGGRTYYADSVKGRFTISRDNAQNTVYLQMNSLKPEDTAVYYCATGQSRDYYWGQGTQGTVSS", "polyreactivity (PSR sort gate)": "high polyreactivity"}, {"sequence": "QVQLVESGGGLVQAGGSLRLSCAASGITFWTYAMGWYRQAPGKERELVAAISKSGGSTYYADSVKGRFTISRDNAKNTVYLQMNSLKPEDTAVYYCAAKGLRYRDIDYDYWGQGTQVTVSS", "polyreactivity (PSR sort gate)": "low polyreactivity"}, {"sequence": "QVQLVESGGGLVQAGGSLRLSCAASGITFWWYAMGWYRQAPGKERELVAAITGGGSTNYADSVKGRFTISRDNAKNTVYLQMNSLKPEDTAVYYCAATGSPARNWDTVTGYYYWGQGTQVTVSS", "polyreactivity (PSR sort gate)": "low polyreactivity"}, {"sequence": "QVQLVESGGGLVQAGGSLRLSCAASGITFYDYTMVWYRQAPGKESELVAVITSAGSTYYADSVKGRFTISRDNAKNTVYLQMNSLKPEDTAVYYCAAVIVSRGRKYRLDYWGQGTQVTVSS", "polyreactivity (PSR sort gate)": "high polyreactivity"}, {"sequence": "QVQLVESGGGLVQAGGSLRLSCAASGITFYEYAMGCYRQAPGTERDFVAAIDHGDSSTYYADSVKGRFTISRDNAKNTVYLQMNSLKPEDTAVYYCNADPYYDYSLNWGDYWGQGTQVTVSS", "polyreactivity (PSR sort gate)": "low polyreactivity"}, {"sequence": "QVQLVESGGGLVQAGGSLRLSCAASGITFYFNAIGWYRQAPGKDRELVAAIAWPGGSTYYADSVKGRFTISRDNAKHTVFLQMNSLKPEDTAVYYCNGVFRYWYADSWFGAYDYWGQGTQVTVSS", "polyreactivity (PSR sort gate)": "high polyreactivity"}, {"sequence": "QVQLVESGGGLVQAGGSLRLSCAASGITFYFNAMGWYRQAPGKEREMVAAISWPGGSTYYADSVKGRFTISRDNAKNTVYLQMNRLKPEDTAVYYCAAEAYFELSGGGLEYGYDYWGQGTQVTVSS", "polyreactivity (PSR sort gate)": "high polyreactivity"}, {"sequence": "QVQLVESGGGLVQAGGSLRLSCAASGITFYFYAMGWYRQAPWKERELVAAITSTGTSTYYADSVKGRFTISRDNAKNTVYLQMNILKPEDTAVYYCNVTDYHTLWYDPEYYWGQGTQVTVSS", "polyreactivity (PSR sort gate)": "low polyreactivity"}, {"sequence": "QVQLVESGGGLVQAGGSLRLSCAASGITFYGNAMGWYRQAPGKERELVAGIRSSGGDTYYADSVKGRFTISRDNAKNTVYLQMNSLKPEDTAVYYCAADFDWFIWGYDYWGQGTQVTVSS", "polyreactivity (PSR sort gate)": "low polyreactivity"}, {"sequence": "QVQLVESGGGLVQAGGSLRLSCAASGITFYGNAMGWYRQAPGNERELVAAITFSGGITYYADSVKGRFTISRDNAKNTVYLQMNSLKPEDTAVYDCATDPIGGWTRPQRYGDDYWGQGTQVTVSS", "polyreactivity (PSR sort gate)": "low polyreactivity"}, {"sequence": "QVQLVESGGGLVQAGGSLRLSCAASGITFYGYAMGWYIQAPGKERELVASITSTGSTNYADSVKGRFTISRDNAKNTVYLQMNSLKPEDTAVYYCAARYREVYRSKRKLGYWGQGTQVTVSS", "polyreactivity (PSR sort gate)": "high polyreactivity"}, {"sequence": "QVQLVESGGGLVQAGGSLRLSCAASGITFYGYAMGWYRQAPGKEREFVATISKSGGITSYADSVKGRFTISRDNAKNTVYLQMNSLKPEDTAVYYCNRGKRYGGYDYWGQGSQVTVSS", "polyreactivity (PSR sort gate)": "low polyreactivity"}, {"sequence": "QVQLVESGGGLVQAGGSLRLSCAASGITFYGYAMGWYRQAPGKERELVAAISKRGGSTYYADSVKGRFTISRDNAKNTVYLQMNSLKPEDTAVYYCNARPGKSQGWRYDYWGQGTQVTVSS", "polyreactivity (PSR sort gate)": "high polyreactivity"}, {"sequence": "QVQLVESGGGLVQAGGSLRLSCAASGITFYGYAMGWYRQAPGKERELVAAISKSGGSTHYADSVKGRFTISRDNAKNTVYLQMNSLKPEDTAVYYCATEGYYYYTSYDYWGQGTQVTVSS", "polyreactivity (PSR sort gate)": "low polyreactivity"}, {"sequence": "QVQLVESGGGLVQAGGSLRLSCAASGITFYGYAMGWYRQAPGKERELVATISSGGGTNYADSVKGRFTISRDNAKNTVYLQMNSLKPEDTAVYYCATDLSTVDYNYWGQGTQVTVSS", "polyreactivity (PSR sort gate)": "low polyreactivity"}, {"sequence": "QVQLVESGGGLVQAGGSLRLSCAASGITFYGYDMGWFRQAPGKERELVASSTYYADSVKGRFTISRDNAKNTVYLQMNSLKPEDTAVYYCITVYYQWVTYGYWGQGTQVTVSS", "polyreactivity (PSR sort gate)": "high polyreactivity"}, {"sequence": "QVQLVESGGGLVQAGGSLRLSCAASGITFYGYDMGWYIQAPGKERELVAAISRSGGSTYYADSVKGRFTISRDNAKNTVYLQMNSLKPEDTAVYYCAADKQGYRGRTPYRYYSWGQGTQVTVSS", "polyreactivity (PSR sort gate)": "high polyreactivity"}, {"sequence": "QVQLVESGGGLVQAGGSLRLSCAASGITFYIYAMGCYRHAPGKERELVAAISSTGGSTYYADSVKGSFTISRDNAKNTVYLQMNSLKPEDNAVYYCNAVFRGTGDYWGQGTQVTVSS", "polyreactivity (PSR sort gate)": "high polyreactivity"}, {"sequence": "QVQLVESGGGLVQAGGSLRLSCAASGITFYKNAMGWYRPAPGKERELVAAISGRGGTTYYADSVKGRFTLSRDNAKNTVYVQMNSLKPEDTAVYYCNTVRWAWPYLKFDYWGQGTQVTVSS", "polyreactivity (PSR sort gate)": "high polyreactivity"}, {"sequence": "QVQLVESGGGLVQAGGSLRLSCAASGITFYKYDMGCYRQATGKERELVAAISFRGGNTNYADSVKGRFTISRDNAKNTVYLQMTSLKPEDTAVYYCAAYSYTWFYEYGYWGLGTQVTVSS", "polyreactivity (PSR sort gate)": "high polyreactivity"}, {"sequence": "QVQLVESGGGLVQAGGSLRLSCAASGITFYLNAMGWYRQAPGKDRELVADITVSGGSTYYADSVKGRFTISRDNAKNTVYLQMNSLKPEDTAVYYCAADLTISYSQEYYYWGQGTQVTVSS", "polyreactivity (PSR sort gate)": "low polyreactivity"}, {"sequence": "QVQLVESGGGLVQAGGSLRLSCAASGITFYLNAMGWYRQAPGKERELVADITVSGGSTYYADSVKGRFTISRDNAKNTVYLQMNSLKREDTAVYYCAADLTISYSQEYYYWGQGTQVTVSS", "polyreactivity (PSR sort gate)": "low polyreactivity"}, {"sequence": "QVQLVESGGGLVQAGGSLRLSCAASGITFYLYAMGWYRQAPGKERELVASITTDDSTNYADSVKGRFTISRDNAKNTVYLLMNSLKPEDTAVYYCATASYHRHHHGYDYWGQGTQVTVSS", "polyreactivity (PSR sort gate)": "low polyreactivity"}, {"sequence": "QVQLVESGGGLVQAGGSLRLSCAASGITFYLYVMGWYRQAPGKERELVAAISSGGSTYYADSVKGRFTISRDNAKNTVYLQMNSLKPEDTAVYYCAADVARYLHYSYHEDYYWGQGTQVTVSS", "polyreactivity (PSR sort gate)": "low polyreactivity"}, {"sequence": "QVQLVESGGGLVQAGGSLRLSCAASGITFYPYAMGWYRQAPGKERELVAAISRRGGSTNYADSVKGRFTISRDNAKNTVYLQMNSLKPEDTAVYYCNRDYPIGYRQDPVYYWGQGSQVTVSS", "polyreactivity (PSR sort gate)": "high polyreactivity"}, {"sequence": "QVQLVESGGGLVQAGGSLRLSCAASGITFYQYAMGWYRQAPGTETELVAGISYSGGSTYYADSVKGRFTISRDNAKNTVYLQMNSLKPEDTAVYYCAAVQPVGLYPRTKYYYWGQGTQVTVSS", "polyreactivity (PSR sort gate)": "high polyreactivity"}, {"sequence": "QVQLVESGGGLVQAGGSLRLSCAASGITFYRNARGWYRQAPGNEMELVAAITWNGGRTYYADSVKGRVTISRDNAKNTVDLQMNSLKPEDTAVYDCAADSGTRNLASYRYYYWGQGTLVTVSS", "polyreactivity (PSR sort gate)": "low polyreactivity"}, {"sequence": "QVQLVESGGGLVQAGGSLRLSCAASGITFYRYAMGWYRQAPGKERALVAAISWRSGSTNYADSVKGRFTISRDNAKNTVYLQMNSLKPADTAVYYCAARVADYPLFGGSSYNRMEYWGQGTQVTVTS", "polyreactivity (PSR sort gate)": "low polyreactivity"}, {"sequence": "QVQLVESGGGLVQAGGSLRLSCAASGITFYSNAMGWYRQAPGKERELVARISSSGGSTYYADSVKGRFTISRDNAKNTVYLQMNSLKPEDTAVYYCAARRLWVRGYNYWGQGTQVTVSS", "polyreactivity (PSR sort gate)": "high polyreactivity"}, {"sequence": "QVQLVESGGGLVQAGGSLRLSCAASGITFYSYAMGWYRQAPGKEMELVAAITRSGGSTYYADSVKGRFTISRDNAKNTVYLQMISLKPEDTAVYYCAAEEGRVFSGGYEYWGQGTQVTVSS", "polyreactivity (PSR sort gate)": "high polyreactivity"}, {"sequence": "QVQLVESGGGLVQAGGSLRLSCAASGITFYSYAMGWYRQAPGKERELVAAISSSGTTYYADSVKGRFTISRDNAKNTVYLQMNSLKPEDTAVYYCAVDSYYKYDYWGQGTQVTVSS", "polyreactivity (PSR sort gate)": "low polyreactivity"}, {"sequence": "QVQLVESGGGLVQAGGSLRLSCAASGITFYSYAMGWYRQAPGKERELVAAISTTVGSTYYADSVKGRFTISRDNAKNTVYLQMNSLKPEDTAVYYCNAYRVYAWIEYNYWGQGTQVTVSS", "polyreactivity (PSR sort gate)": "low polyreactivity"}, {"sequence": "QVQLVESGGGLVQAGGSLRLSCAASGITFYVNAMGWYRQAPGKERELVAAISNGGSTNYADSVKGRFTISRDNAKNTVYLQMNSLKPEDTAVYYCAARPSYGRYRYYYWGQGTQVTVSS", "polyreactivity (PSR sort gate)": "high polyreactivity"}, {"sequence": "QVQLVESGGGLVQAGGSLRLSCAASGITFYVYAMGGSRQAPGKERELVAAMTRSGGITSYADSVKGRFTISRDNAKNTGYLQMNSLKPEDTAVYYCAAERTNQHYHIQGVGYWGQGTQVTVSS", "polyreactivity (PSR sort gate)": "low polyreactivity"}, {"sequence": "QVQLVESGGGLVQAGGSLRLSCAASGITFYWYAMGWYRQAPGKDRELVASITGNGGGTSYADSVKGRFTIARDNAKNTVYLQMNSLKPEDTAVYYCNTSVGGKEYDSWGQGTQVTVTS", "polyreactivity (PSR sort gate)": "low polyreactivity"}, {"sequence": "QVQLVESGGGLVQAGGSLRLSCAASGITFYWYAMGWYRQAPGKERELVARISSTGGSTYYADSVKGRFTISRDNAKNTVYLQLNSLKPEDTAVYYCNAVGRLYLYGSWGQGTQVTLSS", "polyreactivity (PSR sort gate)": "high polyreactivity"}, {"sequence": "QVQLVESGGGLVQAGGSLRLSCAASGITFYWYTMGWYRQAPGKERELVADIDGDGGSTYYADSVKGRFTISRDNAKNTVYLQMNSLKPEDTAVYYCAAQVWPWGYDYWGQGTQVTVSS", "polyreactivity (PSR sort gate)": "high polyreactivity"}, {"sequence": "QVQLVESGGGLVQAGGSLRLSCAASGITFYYNAMGWYRQAPGKERELVAAISDGSSTNYADSVKGRFTISRDNAKNTVYLQMNSLKPEDTAVYYCNASWSFPVSGYESRSPGKLDYWGQGTQVTVYS", "polyreactivity (PSR sort gate)": "low polyreactivity"}, {"sequence": "QVQLVESGGGLVQAGGSLRLSCAASGITFYYNAMGWYRQAPGKERELVATINDSDGSTYADSVKGRFTISRDNAKNTVYLQMNSLKPEDTAVYYCNAQTRAGYYFGYGYWGQGTQVTVSS", "polyreactivity (PSR sort gate)": "low polyreactivity"}, {"sequence": "QVQLVESGGGLVQAGGSLRLSCAASGITFYYYAMGWYRQAPGKERELVAAISDNGSRTYYADSVKGRFTISRDNAKNTVYFQMNSLKPEDTAVYYCAADWFYTNVRYRYAYGGYYWGQGTQVTVSS", "polyreactivity (PSR sort gate)": "high polyreactivity"}, {"sequence": "QVQLVESGGGLVQAGGSLRLSCAASGITFYYYAMGWYRQAPGKERELVAAISRSGGRTYYADSVKGRFTISRDNAKNTVYLQMNSLKPEDTAVYYCAAVRYQGGDSSIEYDYWGQGTQVTVSS", "polyreactivity (PSR sort gate)": "high polyreactivity"}, {"sequence": "QVQLVESGGGLVQAGGSLRLSCAASGITFYYYAMGWYRQAPGKERELVAAISSRGGSTYYADSVKGRFTISRDNAKNTVYLQMNSLKPEDTAVYYCAALYDYWGQGTQVTVSS", "polyreactivity (PSR sort gate)": "high polyreactivity"}]}]}
